Measured values from US20100081620A1 (BIOZYME, published 2010).
Like-named read-outs stand apart in the source and are kept apart here.

T1: Human ADAM10 protease containing the catalytic/disintegrin domains (human, UniProt O14672 214-672, limits assumed)
T1 construct: domain: catalytic/disintegrin domains; Bought; also called ADAM 10 (human) Cat/Dis; ADAM10 catalytic/disintegrin construct
T1 sequence (looked up): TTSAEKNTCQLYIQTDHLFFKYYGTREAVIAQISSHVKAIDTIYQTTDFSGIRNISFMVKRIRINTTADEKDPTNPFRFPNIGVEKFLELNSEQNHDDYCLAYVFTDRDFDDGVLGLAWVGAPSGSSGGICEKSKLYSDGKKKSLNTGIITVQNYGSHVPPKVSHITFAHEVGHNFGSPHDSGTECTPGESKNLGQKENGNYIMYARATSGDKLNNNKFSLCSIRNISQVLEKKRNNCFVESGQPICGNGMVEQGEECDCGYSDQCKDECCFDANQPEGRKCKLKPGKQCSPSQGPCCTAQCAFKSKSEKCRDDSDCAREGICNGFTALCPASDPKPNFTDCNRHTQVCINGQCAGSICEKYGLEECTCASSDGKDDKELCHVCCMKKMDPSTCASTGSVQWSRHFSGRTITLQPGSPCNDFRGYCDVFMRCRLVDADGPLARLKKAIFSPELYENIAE

T2: human ADAM 9 catalytic/disintegrin domains (human, UniProt Q13443 206-697, limits assumed)
T2 construct: domain: catalytic/disintegrin domains; Bought; also called ADAM 9 (human)
T2 sequence (looked up): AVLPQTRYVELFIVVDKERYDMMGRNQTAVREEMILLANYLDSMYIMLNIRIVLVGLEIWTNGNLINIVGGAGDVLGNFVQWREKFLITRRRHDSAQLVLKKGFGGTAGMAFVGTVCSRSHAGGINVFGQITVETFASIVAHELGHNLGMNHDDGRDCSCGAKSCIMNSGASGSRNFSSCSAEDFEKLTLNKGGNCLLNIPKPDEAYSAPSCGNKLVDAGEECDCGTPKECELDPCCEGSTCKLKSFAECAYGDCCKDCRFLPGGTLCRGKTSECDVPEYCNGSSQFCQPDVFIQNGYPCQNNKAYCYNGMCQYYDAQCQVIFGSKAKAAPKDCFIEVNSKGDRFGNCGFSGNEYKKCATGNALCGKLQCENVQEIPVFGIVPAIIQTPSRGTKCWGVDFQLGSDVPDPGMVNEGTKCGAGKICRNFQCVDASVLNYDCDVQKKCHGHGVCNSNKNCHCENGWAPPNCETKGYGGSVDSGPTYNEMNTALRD

T3: ADAM 8 catalytic domain (mouse) (mouse, UniProt Q05910 196-395, limits assumed)
T3 construct: domain: catalytic domain; also called ADAM 8 (mouse); ADAM 8 (mouse) Cat
T3 sequence (looked up): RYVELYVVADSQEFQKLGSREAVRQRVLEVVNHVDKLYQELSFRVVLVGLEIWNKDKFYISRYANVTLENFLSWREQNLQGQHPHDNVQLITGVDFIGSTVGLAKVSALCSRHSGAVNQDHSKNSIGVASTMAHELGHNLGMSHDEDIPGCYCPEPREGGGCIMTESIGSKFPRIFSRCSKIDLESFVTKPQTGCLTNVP

B1: wt ProADAM 10 23-213 (N-terminal His tag) (other)
chain: NPLNKYIRHYEGLSYNVDSLHQKHQRAKRAVSHEDQFLLLDFHAHGRQFNLRMKRDTSLFSDEFKVETSNKVPDYDTSHIYTGHIYGEEGSFSHGSVIDGRFEGFIKTRGGTFYIEPAERYIKDRILPFHSVIYHEDDINYPHKYGPQGGCADHSVFERMRKYQMTGVEEGARAHPEKHAASSGPELLRKK
notes: Expressed in E. coli, purified on Ni-NTA and Superdex-75; the wild type has Cys there; not shown: N-terminal His tag and leader encoded by the pRSET vector (insert at BamHI/EcoRI)
B2: wt ProADAM 10 23-213 (C-terminal His tag) (other)
chain: NPLNKYIRHYEGLSYNVDSLHQKHQRAKRAVSHEDQFLLLDFHAHGRQFNLRMKRDTSLFSDEFKVETSNKVPDYDTSHIYTGHIYGEEGSFSHGSVIDGRFEGFIKTRGGTFYIEPAERYIKDRILPFHSVIYHEDDINYPHKYGPQGGCADHSVFERMRKYQMTGVEEGARAHPEKHAASSGPELLRKKHHHHHH
notes: the wild type has Cys there

Assays:
MMP 2 = target: T4, MMP 2; experiment: enzyme inhibition, fluorescent peptide substrate
T4 construct: also called matrix metalloproteinase 2
Experimental: (§1) Inhibition assays with TACE and ADAM 10. Activity of TACE catalytic/disintegrin, TACE catalytic, or ADAM10 catalytic/disintegrin constructs was monitored at 3 minute intervals using the fluorescent substrate, Dabcyl-LAQAHomoPheRSC(Fluorescein)-NH₂ (SEQ ID NO 17) with excitation 485 nm and emission 530 nm. The substrate was diluted from a 10 mM stock in DMSO to 10 μM in assay buffer containing 20 mM Tris, pH 8.0, and 0.0006% Brij-35. Reactions were run in a 96-well black-coated plate with either ADAM10 prodomain (10 nM-1.0 μM) alone or with enzyme. Concentrations of enzyme ranged from 0.5-2.0 nM for TACE and 5-15 nM for ADAM10. For assays with TACE and ADAM8 prodomain, the range of concentrations varied from 1-4.7 μM.
(§2) Inhibition assays with MMPs. The fluorescent substrate Dabcyl-[…](Fluorescein)-NH₂ (SEQ ID NO 18) (10 μM) in assay buffer containing 50 mM Tris, pH 7.5, 150 mM NaCl, 2 mM CaCl₂, 5 μM ZnSO₄, and 0.01% Brij-35 was used to monitor enzyme activities. MMPs 1, 2, 3, 9, 13, and 14 (0.1-20 nM) were incubated with substrate in the absence or presence of prodomain (3-30 μM). Fluorescence intensities were measured every 3-5 minutes at an emission wavelength of 530 nm (excitation 485 nm).
(§3) Inhibition assays with ADAM 9. The fluorescent substrate, Dabcyl-PchaGC(Me)HAK(Fam)-NH₂ (SEQ ID NO 19) (10 μM), in a buffer containing 25 mM Tris, pH 8.0, 0.0006% Brij-35, was used to measure human ADAM 9 catalytic/disintegrin domains activity. The ADAM 9 was provided as a 0.1 μg/μl stock solution, from which 3 μl was added to start the reaction in the absence or presence of ADAM10 prodomain (78-5000 nM). Fluorescence intensities were measured every 10-20 minutes at excitation and emission wavelengths of 485 and 530 nm respectively.

MMP 3 = target: T5, MMP 3; experiment: enzyme inhibition, fluorescent peptide substrate
T5 construct: also called matrix metalloproteinase 3
Experimental: as §1, §2, §3

MMP 9 = target: T6, MMP 9; experiment: enzyme inhibition, fluorescent peptide substrate
T6 construct: also called matrix metalloproteinase 9
Experimental: as §1, §2, §3

MMP 13 = target: T7, MMP 13; experiment: enzyme inhibition, fluorescent peptide substrate
T7 construct: also called matrix metalloproteinase 13
Experimental: as §1, §2, §3

MMP 14 = target: T8, MMP 14; experiment: enzyme inhibition, fluorescent peptide substrate
T8 construct: also called matrix metalloproteinase 14
Experimental: as §1, §2, §3

[1] = target: T1, Human ADAM10 protease containing the …; experiment: enzyme inhibition, fluorescent peptide substrate
Experimental: as §1, §2, §3

[2] = target: T9, Human TACE protease containing the catalytic/disintegrin domains (human, UniProt P78536 215-671, limits assumed); experiment: enzyme inhibition, fluorescent peptide substrate
T9 construct: domain: catalytic/disintegrin domains; Bought; also called TACE (human) Cat/Dis; TACE catalytic/disintegrin
Experimental: as §1, §2, §3

[3] = target: T10, TACE catalytic domain (human) (human, UniProt P78536 215-477, limits assumed); experiment: enzyme inhibition, fluorescent peptide substrate
T10 construct: domain: catalytic domain; also called TACE (human) Cat
Experimental: as §1, §2, §3

MMP 1 = target: T11, MMP 1; experiment: enzyme inhibition, fluorescent peptide substrate
T11 construct: also called matrix metalloproteinase 1
Experimental: as §1, §2, §3

[4] = target: T2, human ADAM 9 catalytic/disintegrin …; experiment: enzyme inhibition, fluorescent peptide substrate
Experimental: as §3
Calculation of inhibition constants. The amount of activity was calculated by subtracting the ADAM 10 prodomain control from the ADAM 10 prodomain with enzyme. All inhibition assays were performed at room temperature and the data fit to the following equation using Sigma Plot software: […]

[5] = target: T2, human ADAM 9 catalytic/disintegrin …; experiment: enzyme inhibition, fluorescent peptide substrate; remark: listed apart in the source
Experimental: as §1, §2, §3

[6] = target: T3, ADAM 8 catalytic domain (mouse); experiment: enzyme inhibition, fluorescamine assay with Dnp peptide substrate
Experimental: Inhibition assays with ADAM 8. The ADAM 8 catalytic domain was expressed and purified from E. coli as described (22). A substrate based on the L-selectin cleavage site, Dnp-INorIeu[…]-NH₂ (SEQ ID NO 20), was used to monitor enzyme activity with a fluorescamine assay. From a concentrated 50 mM solution in DMSO, the substrate was diluted 1:500 in 25 mM HEPES, pH 8.0, 0.0006% Brij-35. To 100 μl of diluted substrate was added either 5 μl of buffer (Tris, pH 8.0, 150 mM KCl) or 5 μl of ADAM10 prodomain (1-10 μM). Zero time points were taken by diluting 12.5 μl of the reaction mixture into 100 μl of fluorescamine buffer (50 mM HEPES, pH 8.0, 0.2 M NaCl, 0.01 M CaCl₂, 0.01% Brij-35) in a 96-well black-coated plate. Before measuring fluorescence, 3 μl of a 1% solution of fluorescamine in DMSO was added to each well. The plate was allowed to incubate for 10 min in the dark before measuring fluorescence (excitation wavelength at 390 nm, emission wavelength at 485 nm). For assays with TACE and ADAM8 prodomains, a fluorescent substrate was used to monitor activity at concentrations of prodomains ranging from 1-4.7 μM.
Calculation of inhibition constants. The amount of activity was calculated by subtracting the ADAM 10 prodomain control from the ADAM 10 prodomain with enzyme. […]

[7] = target: T1, Human ADAM10 protease containing the …; experiment: enzyme inhibition, fluorescent peptide substrate; fit to a pure competitive model
Experimental: ADAM 10 protein was diluted 1:100 in buffer 25 mM Tris pH 8, 0.0006% Brij-35 and then 10 μl was added to 88 μl of substrate (20-100 μM), Dabcyl-LAQAHomoPheRSC(Fluorescein)-NH₂ with excitation 485 nm and emission 530 nm. Prodomain, 2 μl, in 25 mM Tris, pH 8, 100 mM NaCl, 10% glycerol, 0.1% mercaptoethanol, and 50 μM CaCl₂ was added to substrate before addition of enzyme. The final concentration of prodomain ranged from 17-170 nM. The fluorescence vs time was plotted, and slopes were taken from straight line fits of initial velocities. The reciprocal of the velocities was plotted vs the reciprocal of substrate squared since the normal Lineweaver Burke plot gave curved lines. The initial velocities vs substrate concentrations were fit as a family of curves to several allosteric models. The data fit best to a pure competitive model as described in the following equation where binding of inhibitor prevents substrate from binding to both sites: […]

T9 sequence (P78536 215-671 limits assumed): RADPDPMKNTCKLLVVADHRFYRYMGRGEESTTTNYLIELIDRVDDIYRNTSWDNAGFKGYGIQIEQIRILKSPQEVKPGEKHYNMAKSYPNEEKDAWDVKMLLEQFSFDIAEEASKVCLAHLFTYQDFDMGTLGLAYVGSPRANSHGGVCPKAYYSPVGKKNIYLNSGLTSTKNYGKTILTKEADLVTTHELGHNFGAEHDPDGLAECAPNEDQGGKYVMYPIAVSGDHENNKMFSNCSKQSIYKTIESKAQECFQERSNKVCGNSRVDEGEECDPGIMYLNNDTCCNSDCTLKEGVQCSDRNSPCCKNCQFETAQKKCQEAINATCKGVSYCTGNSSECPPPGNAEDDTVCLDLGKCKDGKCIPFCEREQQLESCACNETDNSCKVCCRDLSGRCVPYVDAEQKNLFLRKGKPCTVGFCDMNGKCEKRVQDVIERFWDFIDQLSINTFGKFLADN
T10 sequence (P78536 215-477 limits assumed): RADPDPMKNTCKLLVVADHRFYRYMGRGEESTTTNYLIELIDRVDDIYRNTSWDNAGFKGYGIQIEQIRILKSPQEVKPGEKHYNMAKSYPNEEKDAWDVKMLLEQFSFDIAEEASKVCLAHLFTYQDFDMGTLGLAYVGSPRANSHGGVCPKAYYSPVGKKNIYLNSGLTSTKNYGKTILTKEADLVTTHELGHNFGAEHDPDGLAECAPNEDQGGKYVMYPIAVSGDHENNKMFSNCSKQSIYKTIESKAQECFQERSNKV
T4 sequence (P08253 110-660): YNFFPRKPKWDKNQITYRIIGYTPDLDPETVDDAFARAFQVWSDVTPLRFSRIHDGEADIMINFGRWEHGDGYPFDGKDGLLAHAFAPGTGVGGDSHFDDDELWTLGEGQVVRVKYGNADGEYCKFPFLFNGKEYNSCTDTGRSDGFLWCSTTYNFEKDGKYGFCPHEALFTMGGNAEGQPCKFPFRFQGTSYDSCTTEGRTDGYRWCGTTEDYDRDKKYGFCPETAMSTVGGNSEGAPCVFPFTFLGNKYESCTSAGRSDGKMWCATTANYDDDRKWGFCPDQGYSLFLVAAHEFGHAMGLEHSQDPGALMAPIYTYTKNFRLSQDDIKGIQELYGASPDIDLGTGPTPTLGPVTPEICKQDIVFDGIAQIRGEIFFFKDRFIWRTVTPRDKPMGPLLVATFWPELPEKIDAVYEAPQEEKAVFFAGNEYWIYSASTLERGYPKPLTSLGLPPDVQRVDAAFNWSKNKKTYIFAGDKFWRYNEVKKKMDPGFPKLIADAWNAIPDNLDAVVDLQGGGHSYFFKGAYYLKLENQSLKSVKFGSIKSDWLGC
T5 sequence (P08254 100-477): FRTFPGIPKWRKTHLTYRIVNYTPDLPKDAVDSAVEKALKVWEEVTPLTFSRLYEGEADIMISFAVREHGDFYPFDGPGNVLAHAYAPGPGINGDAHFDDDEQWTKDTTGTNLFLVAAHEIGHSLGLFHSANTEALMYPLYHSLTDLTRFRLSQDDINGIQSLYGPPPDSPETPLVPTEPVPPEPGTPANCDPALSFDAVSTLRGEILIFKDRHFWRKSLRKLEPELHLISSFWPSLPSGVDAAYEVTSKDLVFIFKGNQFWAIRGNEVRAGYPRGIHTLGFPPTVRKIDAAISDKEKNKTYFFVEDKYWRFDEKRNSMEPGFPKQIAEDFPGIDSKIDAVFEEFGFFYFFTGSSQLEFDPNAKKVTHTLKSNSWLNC
T11 sequence (P03956 100-469): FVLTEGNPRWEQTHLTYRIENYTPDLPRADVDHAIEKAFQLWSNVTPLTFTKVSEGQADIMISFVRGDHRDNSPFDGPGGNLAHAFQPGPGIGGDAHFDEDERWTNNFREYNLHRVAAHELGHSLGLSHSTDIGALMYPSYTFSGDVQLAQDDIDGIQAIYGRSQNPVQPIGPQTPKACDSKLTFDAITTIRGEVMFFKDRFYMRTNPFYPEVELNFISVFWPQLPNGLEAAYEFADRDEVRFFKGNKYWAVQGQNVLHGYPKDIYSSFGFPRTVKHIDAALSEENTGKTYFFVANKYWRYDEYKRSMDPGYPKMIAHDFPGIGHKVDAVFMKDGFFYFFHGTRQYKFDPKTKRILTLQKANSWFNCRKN
T6 sequence (P14780 107-707): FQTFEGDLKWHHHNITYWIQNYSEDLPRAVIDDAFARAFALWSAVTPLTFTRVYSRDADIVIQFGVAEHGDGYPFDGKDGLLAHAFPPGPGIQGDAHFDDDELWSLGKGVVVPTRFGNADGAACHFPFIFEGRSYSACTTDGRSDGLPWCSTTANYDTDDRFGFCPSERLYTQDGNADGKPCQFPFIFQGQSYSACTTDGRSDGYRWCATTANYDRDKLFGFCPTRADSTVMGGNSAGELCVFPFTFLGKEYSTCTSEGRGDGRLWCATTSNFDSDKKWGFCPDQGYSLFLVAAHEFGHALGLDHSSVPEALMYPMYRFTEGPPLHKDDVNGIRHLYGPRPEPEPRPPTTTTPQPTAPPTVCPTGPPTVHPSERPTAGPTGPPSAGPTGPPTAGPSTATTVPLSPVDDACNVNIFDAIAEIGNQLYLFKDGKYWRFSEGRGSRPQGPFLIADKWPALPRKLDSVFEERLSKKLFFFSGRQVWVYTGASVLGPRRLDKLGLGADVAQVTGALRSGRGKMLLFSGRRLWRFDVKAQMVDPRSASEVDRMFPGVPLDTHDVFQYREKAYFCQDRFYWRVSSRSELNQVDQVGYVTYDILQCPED

| Binder | Ki (MMP 2) [nM] | Ki (MMP 3) [nM] | Ki (MMP 9) [nM] | Ki (MMP 13) [nM] | Ki (MMP 14) [nM] | Ki [1] [nM] | Ki [2] [nM] | Ki [3] [nM] | Ki (MMP 1) [nM] | Ki [4] [nM] | Ki [5] [nM] | Ki [6] [nM] | Ki [7] [nM] |
| --- | --- | --- | --- | --- | --- | --- | --- | --- | --- | --- | --- | --- | --- |
| B1 | > 2000 | > 2000 | > 2000 | > 2000 | > 2000 | 75 | > 3000 | > 11000 | > 2000 | – | – | – | – |
| B2 | – | – | – | – | – | – | > 10000 | > 11000 | – | ~1000 | > 1000 | > 10000 | 48 |
